Patent US20260098059A1 (ENDOMET BIOSCIENCES, published 2026)
“And” between values parts separate entries of the source, which are not always exact repeats. Identical values can stand only once. [ ]: non-standard residue; d: D form. Trp(1-Me) = Cn1cc(C[C@H](N)C(=O)O)c2ccccc21; αMeW = C[C@](N)(Cc1c[nH]c2ccccc12)C(=O)O; Trp(3-Me) = 3-methyltryptophan; αMeL = CC(C)C[C@](C)(N)C(=O)O

T1: β-catenin (UniProt P35222 134-665, limits assumed, biotinylated in the SPR and plate assays)
T1 sequence (looked up): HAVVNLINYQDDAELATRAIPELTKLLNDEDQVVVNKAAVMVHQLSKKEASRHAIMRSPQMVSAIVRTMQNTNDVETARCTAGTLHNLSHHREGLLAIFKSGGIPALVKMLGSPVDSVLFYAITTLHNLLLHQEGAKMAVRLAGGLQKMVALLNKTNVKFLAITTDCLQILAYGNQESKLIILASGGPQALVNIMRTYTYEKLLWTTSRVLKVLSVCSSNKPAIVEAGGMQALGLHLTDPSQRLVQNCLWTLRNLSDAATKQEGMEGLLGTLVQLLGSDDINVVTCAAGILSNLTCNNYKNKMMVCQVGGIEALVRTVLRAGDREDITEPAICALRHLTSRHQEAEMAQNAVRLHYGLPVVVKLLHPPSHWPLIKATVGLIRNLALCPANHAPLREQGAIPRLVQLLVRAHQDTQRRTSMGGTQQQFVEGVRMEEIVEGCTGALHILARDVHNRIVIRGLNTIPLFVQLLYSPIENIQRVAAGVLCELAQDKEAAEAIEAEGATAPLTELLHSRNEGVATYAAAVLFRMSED


These binders were tested against T1, β-catenin (assay: cell-based or functional assay).

Wnt Reporter EC50	Binder
> 15 µM and ≤ 22.5 µM	H-KWILICFWG-OH [SEQ ID NO: 117]
> 7.5 µM and ≤ 15 µM	VWFLICFWG (HELM PEPTIDE1{[Nva].W.F.L.I.C.F.W.G}$$$$V2.0; SMILES CCC[C@H](N)C(=O)N[C@@H](Cc1c[nH]c2ccccc12)C(=O)N[C@@H](Cc1ccccc1)C(=O)N[C@@H](CC(C)C)C(=O)N[C@H](C(=O)N[C@@H](CS)C(=O)N[C@@H](Cc1ccccc1)C(=O)N[C@@H](Cc1c[nH]c2ccccc12)C(=O)NCC(=O)O)[C@@H](C)CC) [SEQ ID NO: 141]
> 22.5 µM and ≤ 30 µM	H-MWI[αMeL]ICFWG-OH [SEQ ID NO: 130]
≤ 7.5 µM	KWFLICAWD (HELM PEPTIDE1{K.W.F.L.I.C.A.W.D}$PEPTIDE1,PEPTIDE1,1:R3-9:R3$$$V2.0; SMILES CC[C@H](C)[C@@H]1NC(=O)[C@H](CC(C)C)NC(=O)[C@H](Cc2ccccc2)NC(=O)[C@H](Cc2c[nH]c3ccccc23)NC(=O)[C@@H](N)CCCCNC(=O)C[C@@H](C(=O)O)NC(=O)[C@H](Cc2c[nH]c3ccccc23)NC(=O)[C@H](C)NC(=O)[C@H](CS)NC1=O) [SEQ ID NO: 168]
≤ 7.5 µM	KWFLICFWD (HELM PEPTIDE1{K.W.F.L.I.C.F.W.D}$PEPTIDE1,PEPTIDE1,1:R3-9:R3$$$V2.0; SMILES CC[C@H](C)[C@@H]1NC(=O)[C@H](CC(C)C)NC(=O)[C@H](Cc2ccccc2)NC(=O)[C@H](Cc2c[nH]c3ccccc23)NC(=O)[C@@H](N)CCCCNC(=O)C[C@@H](C(=O)O)NC(=O)[C@H](Cc2c[nH]c3ccccc23)NC(=O)[C@H](Cc2ccccc2)NC(=O)[C@H](CS)NC1=O) [SEQ ID NO: 172]
> 7.5 µM and ≤ 15 µM	H-RWILICFWG-OH [SEQ ID NO: 119]
> 30 µM	MWFLICFWD (HELM PEPTIDE1{[O=C(CCCN[*:1])[*:2]].M.W.F.L.I.C.F.W.D}$PEPTIDE1,PEPTIDE1,1:R1-10:R3$$$V2.0; SMILES CC[C@H](C)[C@@H]1NC(=O)[C@H](CC(C)C)NC(=O)[C@H](Cc2ccccc2)NC(=O)[C@H](Cc2c[nH]c3ccccc23)NC(=O)[C@H](CCSC)NC(=O)CCCNC(=O)C[C@@H](C(=O)O)NC(=O)[C@H](Cc2c[nH]c3ccccc23)NC(=O)[C@H](Cc2ccccc2)NC(=O)[C@H](CS)NC1=O) [SEQ ID NO: 147]
≤ 7.5 µM	KWFLISAWE (HELM PEPTIDE1{K.W.F.L.I.S.A.W.E}$PEPTIDE1,PEPTIDE1,1:R3-9:R3$$$V2.0; SMILES CC[C@H](C)[C@@H]1NC(=O)[C@H](CC(C)C)NC(=O)[C@H](Cc2ccccc2)NC(=O)[C@H](Cc2c[nH]c3ccccc23)NC(=O)[C@@H](N)CCCCNC(=O)CC[C@@H](C(=O)O)NC(=O)[C@H](Cc2c[nH]c3ccccc23)NC(=O)[C@H](C)NC(=O)[C@H](CO)NC1=O) [SEQ ID NO: 183]
≤ 7.5 µM	KWFLICAWD (HELM PEPTIDE1{[ac].K.W.F.L.I.C.A.W.D}$PEPTIDE1,PEPTIDE1,2:R3-10:R3$$$V2.0; SMILES CC[C@H](C)[C@@H]1NC(=O)[C@H](CC(C)C)NC(=O)[C@H](Cc2ccccc2)NC(=O)[C@H](Cc2c[nH]c3ccccc23)NC(=O)[C@@H](NC(C)=O)CCCCNC(=O)C[C@@H](C(=O)O)NC(=O)[C@H](Cc2c[nH]c3ccccc23)NC(=O)[C@H](C)NC(=O)[C@H](CS)NC1=O) [SEQ ID NO: 169]
> 30 µM	H-M[αMeW]ILISFWG-OH [SEQ ID NO: 134]
≤ 7.5 µM	H-HWILICFWG-OH [SEQ ID NO: 118]
> 15 µM and ≤ 22.5 µM	H-MWFLICH[Trp(1-Me)]G-OH [SEQ ID NO: 140]
≤ 7.5 µM	H-MWILISYWG-OH [SEQ ID NO: 152]
> 7.5 µM and ≤ 15 µM	H-MWFLIQFWG-OH [SEQ ID NO: 143]
> 7.5 µM and ≤ 15 µM	H-MWFLICHWG-OH [SEQ ID NO: 145]
> 7.5 µM and ≤ 15 µM	KWFLISAWE (HELM PEPTIDE1{[ac].K.W.F.L.I.S.A.W.E}$PEPTIDE1,PEPTIDE1,2:R3-10:R3$$$V2.0; SMILES CC[C@H](C)[C@@H]1NC(=O)[C@H](CC(C)C)NC(=O)[C@H](Cc2ccccc2)NC(=O)[C@H](Cc2c[nH]c3ccccc23)NC(=O)[C@@H](NC(C)=O)CCCCNC(=O)CC[C@@H](C(=O)O)NC(=O)[C@H](Cc2c[nH]c3ccccc23)NC(=O)[C@H](C)NC(=O)[C@H](CO)NC1=O) [SEQ ID NO: 187]
≤ 7.5 µM	H-MWFLIHFWG-OH [SEQ ID NO: 163]
> 7.5 µM and ≤ 15 µM	H-MWFLICH[Trp(3-Me)]G-OH [SEQ ID NO: 135]
≤ 7.5 µM	KWILICFWD (HELM PEPTIDE1{K.W.I.L.I.C.F.W.D}$PEPTIDE1,PEPTIDE1,1:R3-9:R3$$$V2.0; SMILES CC[C@H](C)[C@@H]1NC(=O)[C@H](CC(C)C)NC(=O)[C@H]([C@@H](C)CC)NC(=O)[C@H](Cc2c[nH]c3ccccc23)NC(=O)[C@@H](N)CCCCNC(=O)C[C@@H](C(=O)O)NC(=O)[C@H](Cc2c[nH]c3ccccc23)NC(=O)[C@H](Cc2ccccc2)NC(=O)[C@H](CS)NC1=O) [SEQ ID NO: 120]
≤ 7.5 µM	KWFLICFWE (HELM PEPTIDE1{K.W.F.L.I.C.F.W.E}$PEPTIDE1,PEPTIDE1,1:R3-9:R3$$$V2.0; SMILES CC[C@H](C)[C@@H]1NC(=O)[C@H](CC(C)C)NC(=O)[C@H](Cc2ccccc2)NC(=O)[C@H](Cc2c[nH]c3ccccc23)NC(=O)[C@@H](N)CCCCNC(=O)CC[C@@H](C(=O)O)NC(=O)[C@H](Cc2c[nH]c3ccccc23)NC(=O)[C@H](Cc2ccccc2)NC(=O)[C@H](CS)NC1=O) [SEQ ID NO: 179]
≤ 7.5 µM	KMWFLISFWD (HELM PEPTIDE1{K.M.W.F.L.I.S.F.W.D}$PEPTIDE1,PEPTIDE1,1:R3-10:R3$$$V2.0; SMILES CC[C@H](C)[C@@H]1NC(=O)[C@H](CC(C)C)NC(=O)[C@H](Cc2ccccc2)NC(=O)[C@H](Cc2c[nH]c3ccccc23)NC(=O)[C@H](CCSC)NC(=O)[C@@H](N)CCCCNC(=O)C[C@@H](C(=O)O)NC(=O)[C@H](Cc2c[nH]c3ccccc23)NC(=O)[C@H](Cc2ccccc2)NC(=O)[C@H](CO)NC1=O) [SEQ ID NO: 171]
